Source: publication PMC4057808, “Molecular characterization of Clonorchis sinensis secretory myoglobin: Delineating its role in anti-oxidative survival” (Parasites & Vectors, 2014)

Test system: COc1ccccc1O
Experiment: purified protein
Settings: H2O2 (0.2 mM in methods, ~20 μM in table note), 50 mM sodium phosphate pH 7.0, 20 °C, guaiacol varied 0.08-2.5 mM as printed

Substance: rCsMb (CsMb, Clonorchis sinensis myoglobin) (Clonorchis sinensis)
- Km: 81 mM
